To fix the notation:
B1: SLC2A12 (parent)
chain: LTLVFFVQITGQPNILFYASTVLK
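Also: lentivirally expressed fusions sorted by FACS into six bins by GFP to DsRed ratio, PSI derived from sequencing read proportions per bin multiplied by bin number.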

Variants of B1 are the subject of this data set. Kind of data set: protein stability index of a GFP-peptide fusion (GPS, HEK-293T) (PSI 1-6); higher = more stable. The conditions noted are these: c terminus: a fixed tail appended.
As for LTLVFFVFITGQPNILFYASTVLK [Q8F], the protein stability index amounted to 3.87.

On to LTLVFFVNITGQPNILFYASTVLK [Q8N], for which the protein stability index stood at 3.92. For the variant LTLVFFVKITGQPNILFYASTVLK [Q8K], the protein stability index amounted to 3.48.

For LTLVFFVCITGQPNILFYASTVLK [Q8C], the protein stability index was found to be 3.19. As for LTLVFFVGITGQPNILFYASTVLK [Q8G], the protein stability index amounted to 2.93. LTLVFFVTITGQPNILFYASTVLK [Q8T]: the protein stability index is 3.53. For LTLVFFVQITGQPNILFYAETVLK [S20E] the value was 3.34. For LTLVFFVQITGQPNILFYAFTVLK [S20F] the value was 4.03. For LTLVFFVQITGQPNILFYAQTVLK [S20Q] the value was 2.48; for LTLVFFVQITGQPNILFYATTVLK [S20T], 4.03; for LGLVFFVQITGQPNILFYASTVLK [T2G], 2.15. As for LLLVFFVQITGQPNILFYASTVLK [T2L], the protein stability index stood at 3.88. For LCLVFFVQITGQPNILFYASTVLK [T2C] the value was 2.24; for LMLVFFVQITGQPNILFYASTVLK [T2M], 3.56. As to LPLVFFVQITGQPNILFYASTVLK [T2P], the protein stability index was found to be 2.78. For LNLVFFVQITGQPNILFYASTVLK [T2N] the value was 3.71; for LFLVFFVQITGQPNILFYASTVLK [T2F], 2.44; for LTLVFFVQITGQPNILFYASTFLK [V22F], 2.78. For LTLVFFVQITGQPNILFYASTILK [V22I] the value was 3.81; for LTLVFFVQITGQPNILFYASTALK [V22A], 4.16.

As to LTLVFFVQITGQPNILFYASTYLK [V22Y], the protein stability index stood at 3.57. As for LTLVFFVQITGQPNILFYASTLLK [V22L], the protein stability index amounted to 2.28.

Turning to LTLVFLVQITGQPNILFYASTVLK [F6L], the protein stability index was 2.26. In the case of LTLVFAVQITGQPNILFYASTVLK [F6A], the protein stability index was 2.9.

As for LTLVFFVQITGQPNIPFYASTVLK [L16P], the protein stability index came out at 4.12.

As to LTLVFFVQITGQPNIAFYASTVLK [L16A], the protein stability index came to 4.05.

On to LTLVFFVQITGQPNIMFYASTVLK [L16M], for which the protein stability index was found to be 3.19. For LTLVFFVQITGQPNILFYKSTVLK [A19K] the value was 2.5; for LTLVFFVQITGQPNSLFYASTVLK [I15S], 4.88.

LTLVFFVQITGQPNWLFYASTVLK [I15W]: the protein stability index came to 2.63. As to LTLVFFVQITGQPNFLFYASTVLK [I15F], the protein stability index is 3.04.

Turning to LTLVFFVQITGQPNCLFYASTVLK [I15C], the protein stability index came to 2.48. In the case of LTLVFFVQITGQPNELFYASTVLK [I15E], the protein stability index worked out at 2.91. LTLVFFVQITGQPNLLFYASTVLK [I15L]: the protein stability index worked out at 4.71. For LTLVFFVQIHGQPNILFYASTVLK [T10H] the value was 2.17. For LTLVFFVQIFGQPNILFYASTVLK [T10F] the value was 2.92; for LTLVFFVQIKGQPNILFYASTVLK [T10K], 3.77. For LTLVFFVQIQGQPNILFYASTVLK [T10Q] the value was 1.31. On to LTLVFFVQINGQPNILFYASTVLK [T10N], for which the protein stability index was 1.88. For LTLVFFVQITGQPNILFYASTVLV [K24V] the value was 3.5. For LTLVFFVQITGQPNILFYASTVLE [K24E] the value was 3.5. For LTLVFFVQITGQPNILFYASTVLY [K24Y], the protein stability index turned out to be 4.23. For LTLVFFVQITGQPNILFYASTVLP [K24P] the value was 1.8; for LTLVFFVQITGQPNILFYASTVLW [K24W], 2.76; for LTLQFFVQITGQPNILFYASTVLK [V4Q], 3.56. For the variant LTLIFFVQITGQPNILFYASTVLK [V4I], the protein stability index was determined as 2.99. For LTLHFFVQITGQPNILFYASTVLK [V4H] the value was 3.15; for LTLLFFVQITGQPNILFYASTVLK [V4L], 2.65; for LTLEFFVQITGQPNILFYASTVLK [V4E], 1.44. In the case of LTLKFFVQITGQPNILFYASTVLK [V4K], the protein stability index was 2.64. For LTLSFFVQITGQPNILFYASTVLK [V4S] the value was 2.54; for LTLVFFVQITGQPGILFYASTVLK [N14G], 3.5. As to LTLVFFVQITGQPEILFYASTVLK [N14E], the protein stability index turned out to be 1.76. In the case of LTLVFFVQITGQPFILFYASTVLK [N14F], the protein stability index is 3.6. For LTLVFFVQITGQPLILFYASTVLK [N14L] the value was 3.78; for LTLVFFVQITGQPNILFYASDVLK [T21D], 3.9. Take LTLVFFVQITGQPNILFYASFVLK [T21F]: the protein stability index was determined as 3.22. For LTLVFFVQITGQPNILFYASCVLK [T21C] the value was 3.33. LTLVFFVQITGQPNILFYASMVLK [T21M]: the protein stability index came to 3.09. For LTLVFFYQITGQPNILFYASTVLK [V7Y] the value was 3.38; for LTLVFFMQITGQPNILFYASTVLK [V7M], 4.19. For LTLVHFVQITGQPNILFYASTVLK [F5H] the value was 1.93. Consider LTLVNFVQITGQPNILFYASTVLK [F5N], for which the protein stability index turned out to be 2.65. Regarding LTLVSFVQITGQPNILFYASTVLK [F5S], the protein stability index was determined as 1.66. For LTLVQFVQITGQPNILFYASTVLK [F5Q] the value was 2.13.

In the case of LTLVWFVQITGQPNILFYASTVLK [F5W], the protein stability index worked out at 3.59.

Take LTLVRFVQITGQPNILFYASTVLK [F5R]: the protein stability index is 3.67. Regarding LTLVFFVQITGQINILFYASTVLK [P13I], the protein stability index was determined as 2.72. For the variant LTLVFFVQITGQYNILFYASTVLK [P13Y], the protein stability index worked out at 2.2.

Turning to LTLVFFVQITGQVNILFYASTVLK [P13V], the protein stability index is 3.35. For LTLVFFVQITGQKNILFYASTVLK [P13K] the value was 2.67. For LTLVFFVQITGQQNILFYASTVLK [P13Q] the value was 2.05. For LTLVFFVQITGQENILFYASTVLK [P13E] the value was 3.73.

For the variant LTLVFFVQITGTPNILFYASTVLK [Q12T], the protein stability index was determined as 3.22. For LTLVFFVQITGLPNILFYASTVLK [Q12L] the value was 3.8; for LTLVFFVQITGCPNILFYASTVLK [Q12C], 2.83; for LTLVFFVQITGVPNILFYASTVLK [Q12V], 2.91.

On to LTLVFFVQITGQPNILFYASTVNK [L23N], for which the protein stability index was 2.74. LTLVFFVQITGQPNILNYASTVLK [F17N]: the protein stability index is 2.66. For LTLVFFVQITGQPNILSYASTVLK [F17S] the value was 2.69. On to LTLVFFVQITGQPNILQYASTVLK [F17Q], for which the protein stability index came to 3.16. For LTLVFFVQITGQPNILYYASTVLK [F17Y] the value was 2.63; for LTLVFFVQITGQPNILWYASTVLK [F17W], 3; for LTLVFFVQITMQPNILFYASTVLK [G11M], 3.38. As for LTLVFFVQITNQPNILFYASTVLK [G11N], the protein stability index came to 3.96. For LTLVFFVQITQQPNILFYASTVLK [G11Q] the value was 4.06; for LTLVFFVQITAQPNILFYASTVLK [G11A], 2.87; for LTIVFFVQITGQPNILFYASTVLK [L3I], 3.43. For the variant LTPVFFVQITGQPNILFYASTVLK [L3P], the protein stability index amounted to 3.17. Turning to LTSVFFVQITGQPNILFYASTVLK [L3S], the protein stability index is 3.34. As for LTNVFFVQITGQPNILFYASTVLK [L3N], the protein stability index worked out at 2.42. Regarding LTHVFFVQITGQPNILFYASTVLK [L3H], the protein stability index amounted to 2.75. For LTLVFFVQITGQPNILFNASTVLK [Y18N] the value was 1.59. LTLVFFVQITGQPNILFAASTVLK [Y18A]: the protein stability index was determined as 2.49.

(Values after the supplement of paper PMC10567573.)
